Data: the supplement of paper PMC5998384

Key:
[1] = test system: HeLa Kyoto; experiment: solubility change mitosis vs G1/S (difference of NP-40 vs SDS log2 ratios) (log2 ratio difference); higher = more soluble in mitosis
[2] = test system: HeLa Kyoto; experiment: melting temperature (median over replicates), in situ; higher = more thermally stable
[3] = test system: HeLa Kyoto; experiment: solubility in G1/S (NP-40 vs SDS abundance) (log2 ratio); higher = more soluble; settings: cell cycle stage: G1/S
[4] = test system: HeLa Kyoto; experiment: thermal stability score vs G1/S (z-score of summed log2 fold changes over temperatures); higher = more thermally stable than in G1/S
[5] = cell cycle stage: early G1 (4.5 h after nocodazole release)
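For melting temperature (median over replicates), in situ in this document: HeLa Kyoto cells synchronized by double thymidine or nocodazole block, proteins quantified by TMT10plex mass spectrometry, three independent biological replicates.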
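For solubility change mitosis vs G1/S (difference of NP-40 vs SDS log2 ratios) in this document: synchronized HeLa Kyoto cells (double thymidine block for G1/S, nocodazole release for mitosis), protein amounts in NP-40 versus SDS lysates quantified by mass spectrometry, three biological replicates.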
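For solubility in G1/S (NP-40 vs SDS abundance) in this document: HeLa Kyoto cells arrested at G1/S by double thymidine block, proteins quantified by TMT10plex mass spectrometry in mild NP-40 versus SDS extracts, three biological replicates.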
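For thermal stability score vs G1/S (z-score of summed log2 fold changes over temperatures) in this document: synchronized HeLa Kyoto cells, proteins quantified by TMT10plex mass spectrometry, three biological replicates, mitosis taken 0.5 h after nocodazole release, G1/S directly after double thymidine block.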

Sequence of HSPA5 (chain, as listed by the source): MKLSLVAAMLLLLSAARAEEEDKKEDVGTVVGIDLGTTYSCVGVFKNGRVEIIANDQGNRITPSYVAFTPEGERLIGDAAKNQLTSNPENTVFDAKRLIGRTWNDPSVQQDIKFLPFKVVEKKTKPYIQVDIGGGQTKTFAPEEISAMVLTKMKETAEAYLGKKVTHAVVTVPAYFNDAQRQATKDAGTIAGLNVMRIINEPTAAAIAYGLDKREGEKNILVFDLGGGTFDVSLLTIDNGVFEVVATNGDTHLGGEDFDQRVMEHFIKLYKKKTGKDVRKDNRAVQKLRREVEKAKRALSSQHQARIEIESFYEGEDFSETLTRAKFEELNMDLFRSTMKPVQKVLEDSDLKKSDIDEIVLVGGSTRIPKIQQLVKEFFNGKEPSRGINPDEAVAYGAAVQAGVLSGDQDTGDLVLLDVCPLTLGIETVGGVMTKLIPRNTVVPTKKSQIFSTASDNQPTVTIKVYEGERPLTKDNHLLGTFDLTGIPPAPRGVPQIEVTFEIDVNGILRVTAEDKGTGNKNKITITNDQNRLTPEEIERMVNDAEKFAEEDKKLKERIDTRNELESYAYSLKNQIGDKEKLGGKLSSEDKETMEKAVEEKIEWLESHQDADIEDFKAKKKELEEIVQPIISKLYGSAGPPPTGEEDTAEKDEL
Sequence of SLTM (chain, as listed by the source): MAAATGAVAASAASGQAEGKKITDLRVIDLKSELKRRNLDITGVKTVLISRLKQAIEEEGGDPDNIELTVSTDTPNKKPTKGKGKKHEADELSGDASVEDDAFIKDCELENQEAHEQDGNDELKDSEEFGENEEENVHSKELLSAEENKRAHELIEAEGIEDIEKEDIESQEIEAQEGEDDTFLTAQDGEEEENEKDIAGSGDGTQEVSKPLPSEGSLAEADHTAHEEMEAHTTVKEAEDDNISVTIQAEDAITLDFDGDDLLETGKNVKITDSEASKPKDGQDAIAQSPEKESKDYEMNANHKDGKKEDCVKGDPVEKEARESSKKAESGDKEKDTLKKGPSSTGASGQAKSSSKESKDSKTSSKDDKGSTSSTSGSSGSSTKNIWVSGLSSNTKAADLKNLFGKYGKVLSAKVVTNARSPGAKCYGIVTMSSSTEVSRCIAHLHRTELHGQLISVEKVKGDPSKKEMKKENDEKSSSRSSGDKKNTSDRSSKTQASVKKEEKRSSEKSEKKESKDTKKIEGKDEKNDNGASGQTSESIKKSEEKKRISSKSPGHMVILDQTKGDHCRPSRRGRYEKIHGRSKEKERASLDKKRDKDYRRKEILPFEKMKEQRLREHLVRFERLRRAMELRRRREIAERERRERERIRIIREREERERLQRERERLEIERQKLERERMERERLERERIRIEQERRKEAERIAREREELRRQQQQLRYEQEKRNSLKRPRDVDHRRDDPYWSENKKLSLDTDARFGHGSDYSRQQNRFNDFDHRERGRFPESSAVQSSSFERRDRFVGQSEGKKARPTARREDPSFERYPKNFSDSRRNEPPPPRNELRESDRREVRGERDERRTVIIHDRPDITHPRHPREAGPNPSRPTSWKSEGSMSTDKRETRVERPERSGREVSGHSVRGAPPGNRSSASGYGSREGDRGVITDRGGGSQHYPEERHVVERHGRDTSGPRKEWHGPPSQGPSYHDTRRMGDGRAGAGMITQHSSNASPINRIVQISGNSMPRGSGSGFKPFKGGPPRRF

Row | Substance | solubility change mitosis (log2) [1] | melting temperature ([2]; cell cycle stage: G1/S) [°C] | melting temperature ([2]; cell cycle stage: mitosis) [°C] | solubility in G1/S (log2) [3] | thermal stability score [4, 5] | thermal stability score ([4]; cell cycle stage: mitosis)
1 | MGKKSRAVPGRRPILQLSPPGPRGSTPGRDPEPEPDTEPDSTAAVPSQPAPSAATTTTTAVTAAAASDDSPSEDEQEAVQEVPRVVQNPPKPVMTTRPTAVKATGGLCLLGAYADSDDDDNDVSEKLAQSKETNGNQSTDIDSTLANFLAEIDAITAPQPAAPVGASAPPPTPPRPEPKEAATSTLSSSTSNGTDSTQTSGWQYDTQCSLAGVGIEMGDWQEVWDENTGCYYYWNTQTNEVTWELPQYLATQVQGLQHYQPSSVPGAETSFVVNTDIYSKEKTISVSSSKSGPVIAKREVKKEVNEGIQALSNSEEEKKGVAASLLAPLLPEGIKEEEERWRRKVICKEEPVSEVKETSTTVEEATTIVKPQEIMLDNIEDPSQEDLCSVVQSGESEEEEEQDTLELELVLERKKAELRALEEGDGSVSGSSPRSDISQPASQDGMRRLMSKRGKWKMFVRATSPESTSRSSSKTGRDTPENGETAIGAENSEKIDENSDKEMEVEESPEKIKVQTTPKVEEEQDLKFQIGELANTLTSKFEFLGINRQSISNFHVLLLQTETRIADWREGALNGNYLKRKLQDAAEQLKQYEINATPKGWSCHWDRDHRRYFYVNEQSGESQWEFPDGEEEEEESQAQENRDETLAKQTLKDKTGTDSNSTESSETSTGSLCKESFSGQVSSSSLMPLTPFWTLLQSNVPVLQPPLPLEMPPPPPPPPESPPPPPPPPPPAEDGEIQEVEMEDEGSEEPPAPGTEEDTPLKPSAQTTVVTSQSSVDSTISSSSSTKGIKRKATEISTAVVQRSATIGSSPVLYSQSAIATGHQAAGIGNQATGIGHQTIPVSLPAAGMGHQARGMSLQSNYLGLAAAPAIMSYAECSVPIGVTAPSLQPVQARGAVPTATIIEPPPPPPPPPPPPPPAPKMPPPEKTKKGRKDKAKKSKTKMPSLVKKWQSIQRELDEEDNSSSSEEDRESTAQKRIEEWKQQQLVSGMAERNANFEALPEDWRARLKRRKMAPNT [FNBP4] | 0.168 | 62.5 | 62.1 | -0.323 | -4.32 | -4.84
2 | MYCBP2 | 0.0594 | 51.4 | 50.8 | -0.39 | -0.686 | -0.306
3 | MMQGEAHPSASLIDRTIKMRKETEARKVVLAWGLLNVSMAGMIYTEMTGKLISSYYNVTYWPLWYIELALASLFSLNALFDFWRYFKYTVAPTSLVVSPGQQTLLGLKTAVVQTTPPHDLAATQIPPAPPSPSIQGQSVLSYSPSRSPSTSPKFTTSCMTGYSPQLQGLSSGGSGSYSPGVTYSPVSGYNKLASFSPSPPSPYPTTVGPVESSGLRSRYRSSPTVYNSPTDKEDYMTDLRTLDTFLRSEEEKQHRVKLGSPDSTSPSSSPTFWNYSRSMGDYAQTLKKFQYQLACRSQAPCANKDEADLSSKQAAEEVWARVAMNRQLLDHMDSWTAKFRNWINETILVPLVQEIESVSTQMRRMGCPELQIGEASITSLKQAALVKAPLIPTLNTIVQYLDLTPNQEYLFERIKELSQGGCMSSFRWNRGGDFKGRKWDTDLPTDSAIIMHVFCTYLDSRLPPHPKYPDGKTFTSQHFVQTPNKPDVTNENVFCIYQSAINPPHYELIYQRHVYNLPKGRNNMFHTLLMFLYIIKTKESGMLGRVNLGLSGVNILWIFGE [TMEM209] | -0.145 | 52 | 53.2 | 0.161 | 0.688 | 3.82
4 | MLSLLVWILTLSDTFSQGTQTRFSQEPADQTVVAGQRAVLPCVLLNYSGIVQWTKDGLALGMGQGLKAWPRYRVVGSADAGQYNLEITDAELSDDASYECQATEAALRSRRAKLTVLIPPEDTRIDGGPVILLQAGTPHNLTCRAFNAKPAATIIWFRDGTQQEGAVASTELLKDGKRETTVSQLLINPTDLDIGRVFTCRSMNEAIPSGKETSIELDVHHPPTVTLSIEPQTVQEGERVVFTCQATANPEILGYRWAKGGFLIEDAHESRYETNVDYSFFTEPVSCEVHNKVGSTNVSTLVNVHFAPRIVVDPKPTTTDIGSDVTLTCVWVGNPPLTLTWTKKDSNMVLSNSNQLLLKSVTQADAGTYTCRAIVPRIGVAEREVPLYVNGPPIISSEAVQYAVRGDGGKVECFIGSTPPPDRIAWAWKENFLEVGTLERYTVERTNSGSGVLSTLTINNVMEADFQTHYNCTAWNSFGPGTAIIQLEEREVLPVGIIAGATIGASILLIFFFIALVFFLYRRRKGSRKDVTLRKLDIKVETVNREPLTMHSDREDDTASVSTATRVMKAIYSSFKDDVDLKQDLRCDTIDTREEYEMKDPTNGYYNVRAHEDRPSSRAVLYADYRAPGPARFDGRPSSRLSHSSGYAQLNTYSRGPASDYGPEPTPPGPAAPAGTDTTSQLSYENYEKFNSHPFPGAAGYPTYRLGYPQAPPSGLERTPYEAYDPIGKYATATRFSYTSQHSDYGQRFQQRMQTHV [KIRREL] | 0.0763 | 52 | 52.2 | -0.151 | -1.16 | -0.769
5 | MRLGPRTAALGLLLLCAAAAGAGKAEELHYPLGERRSDYDREALLGVQEDVDEYVKLGHEEQQKRLQAIIKKIDLDSDGFLTESELSSWIQMSFKHYAMQEAKQQFVEYDKNSDDTVTWDEYNIQMYDRVIDFDENTALDDAEEESFRKLHLKDKKRFEKANQDSGPGLSLEEFIAFEHPEEVDYMTEFVIQEALEEHDKNGDGFVSLEEFLGDYRWDPTANEDPEWILVEKDRFVNDYDKDNDGRLDPQELLPWVVPNNQGIAQEEALHLIDEMDLNGDKKLSEEEILENPDLFLTSEATDYGRQLHDDYFYHDEL [RCN2] | 0.0798 | 54.1 | 55.7 | 0.0519 | 4.55 | 0.298
6 | MKVVNLKQAILQAWKERWSDYQWAINMKKFFPKGATWDILNLADALLEQAMIGPSPNPLILSYLKYAISSQMVSYSSVLTAISKFDDFSRDLCVQALLDIMDMFCDRLSCHGKAEECIGLCRALLSALHWLLRCTAASAERLREGLEAGTPAAGEKQLAMCLQRLEKTLSSTKNRALLHIAKLEEASSWTAIEHSLLKLGEILANLSNPQLRSQAEQCGTLIRSIPTMLSVHAEQMHKTGFPTVHAVILLEGTMNLTGETQSLVEQLTMVKRMQHIPTPLFVLEIWKACFVGLIESPEGTEELKWTAFTFLKIPQVLVKLKKYSHGDKDFTEDVNCAFEFLLKLTPLLDKADQRCNCDCTNFLLQECGKQGLLSEASVNNLMAKRKADREHAPQQKSGENANIQPNIQLILRAEPTVTNILKTMDADHSKSPEGLLGVLGHMLSGKSLDLLLAAAAATGKLKSFARKFINLNEFTTYGSEESTKPASVRALLFDISFLMLCHVAQTYGSEVILSESRTGAEVPFFETWMQTCMPEEGKILNPDHPCFRPDSTKVESLVALLNNSSEMKLVQMKWHEACLSISAAILEILNAWENGVLAFESIQKITDNIKGKVCSLAVCAVAWLVAHVRMLGLDEREKSLQMIRQLAGPLFSENTLQFYNERVVIMNSILERMCADVLQQTATQIKFPSTGVDTMPYWNLLPPKRPIKEVLTDIFAKVLEKGWVDSRSIHIFDTLLHMGGVYWFCNNLIKELLKETRKEHTLRAVELLYSIFCLDMQQVTLVLLGHILPGLLTDSSKWHSLMDPPGTALAKLAVWCALSSYSSHKGQASTRQKKRHREDIEDYISLFPLDDVQPSKLMRLLSSNEDDANILSSPTDRSMSSSLSASQLHTVNMRDPLNRVLANLFLLISSILGSRTAGPHTQFVQWFMEECVDCLEQGGRGSVLQFMPFTTVSELVKVSAMSSPKVVLAITDLSLPLGRQVAAKAIAAL [MED24] | 0.0385 | 50.8 | 52.2 | -0.322 | 1.11 | 1.86
7 | MESSPFNRRQWTSLSLRVTAKELSLVNKNKSSAIVEIFSKYQKAAEETNMEKKRSNTENLSQHFRKGTLTVLKKKWENPGLGAESHTDSLRNSSTEIRHRADHPPAEVTSHAASGAKADQEEQIHPRSRLRSPPEALVQGRYPHIKDGEDLKDHSTESKKMENCLGESRHEVEKSEISENTDASGKIEKYNVPLNRLKMMFEKGEPTQTKILRAQSRSASGRKISENSYSLDDLEIGPGQLSSSTFDSEKNESRRNLELPRLSETSIKDRMAKYQAAVSKQSSSTNYTNELKASGGEIKIHKMEQKENVPPGPEVCITHQEGEKISANENSLAVRSTPAEDDSRDSQVKSEVQQPVHPKPLSPDSRASSLSESSPPKAMKKFQAPARETCVECQKTVYPMERLLANQQVFHISCFRCSYCNNKLSLGTYASLHGRIYCKPHFNQLFKSKGNYDEGFGHRPHKDLWASKNENEEILERPAQLANARETPHSPGVEDAPIAKVGVLAASMEAKASSQQEKEDKPAETKKLRIAWPPPTELGSSGSALEEGIKMSKPKWPPEDEISKPEVPEDVDLDLKKLRRSSSLKERSRPFTVAASFQSTSVKSPKTVSPPIRKGWSMSEQSEESVGGRVAERKQVENAKASKKNGNVGKTTWQNKESKGETGKRSKEGHSLEMENENLVENGADSDEDDNSFLKQQSPQEPKSLNWSSFVDNTFAEEFTTQNQKSQDVELWEGEVVKELSVEEQIKRNRYYDEDEDEE [LIMA1] | 0.392 | 57.9 | 54.3 | -1.45 | -0.923 | -3.34
8 | MARPDDEEGAAVAPGHPLAKGYLPLPRGAPVGKESVELQNGPKAGTFPVNGAPRDSLAAASGVLGGPQTPLAPEEETQARLLPAGAGAETPGAESSPLPLTALSPRRFVVLLIFSLYSLVNAFQWIQYSIISNVFEGFYGVTLLHIDWLSMVYMLAYVPLIFPATWLLDTRGLRLTALLGSGLNCLGAWIKCGSVQQHLFWVTMLGQCLCSVAQVFILGLPSRIASVWFGPKEVSTACATAVLGNQLGTAVGFLLPPVLVPNTQNDTNLLACNISTMFYGTSAVATLLFILTAIAFKEKPRYPPSQAQAALQDSPPEEYSYKKSIRNLFKNIPFVLLLITYGIMTGAFYSVSTLLNQMILTYYEGEEVNAGRIGLTLVVAGMVGSILCGLWLDYTKTYKQTTLIVYILSFIGMVIFTFTLDLRYIIIVFVTGGVLGFFMTGYLPLGFEFAVEITYPESEGTSSGLLNASAQIFGILFTLAQGKLTSDYGPKAGNIFLCVWMFIGIILTALIKSDLRRHNINIGITNVDVKAIPADSPTDQEPKTVMLSKQSESAI [FLVCR1] | -0.0168 | 57.4 | 59.1 | -0.162 | -1.21 | -2.85
9 | SLTM | 0.595 | 51.1 | 51.4 | -1.17 | 0.205 | 2.43
10 | HSPA5 | 0.0735 | 55.5 | 56.9 | 0.316 | 3.25 | 3.15
11 | MAAESGSDFQQRRRRRRDPEEPEKTELSERELAVAVAVSQENDEENEERWVGPLPVEATLAKKRKVLEFERVYLDNLPSASMYERSYMHRDVITHVVCTKTDFIITASHDGHVKFWKKIEEGIEFVKHFRSHLGVIESIAVSSEGALFCSVGDDKAMKVFDVVNFDMINMLKLGYFPGQCEWIYCPGDAISSVAASEKSTGKIFIYDGRGDNQPLHIFDKLHTSPLTQIRLNPVYKAVVSSDKSGMIEYWTGPPHEYKFPKNVNWEYKTDTDLYEFAKCKAYPTSVCFSPDGKKIATIGSDRKVRIFRFVTGKLMRVFDESLSMFTELQQMRQQLPDMEFGRRMAVERELEKVDAVRLINIVFDETGHFVLYGTMLGIKVINVETNRCVRILGKQENIRVMQLALFQGIAKKHRAATTIEMKASENPVLQNIQADPTIVCTSFKKNRFYMFTKREPEDTKSADSDRDVFNEKPSKEEVMAATQAEGPKRVSDSAIIHTSMGDIHTKLFPVECPKTVENFCVHSRNGYYNGHTFHRIIKGFMIQTGDPTGTGMGGESIWGGEFEDEFHSTLRHDRPYTLSMANAGSNTNGSQFFITVVPTPWLDNKHTVFGRVTKGMEVVQRISNVKVNPKTDKPYEDVSIINITVK [PPWD1] | -0.0306 | 49.7 | 49.8 | -0.381 | 0.382 | 0.58
12 | MSAPLDAALHALQEEQARLKMRLWDLQQLRKELGDSPKDKVPFSVPKIPLVFRGHTQQDPEVPKSLVSNLRIHCPLLAGSALITFDDPKVAEQVLQQKEHTINMEECRLRVQVQPLELPMVTTIQMSSQLSGRRVLVTGFPASLRLSEEELLDKLEIFFGKTRNGGGDVDVRELLPGSVMLGFARDGVAQRLCQIGQFTVPLGGQQVPLRVSPYVNGEIQKAEIRSQPVPRSVLVLNIPDILDGPELHDVLEIHFQKPTRGGGEVEALTVVPQGQQGLAVFTSESG [IFI35] | -0.0643 | 54.6 | 55.2 | 0.654 | -1.43 | -2.41
